# According to US20090312245A1, “SRA binding protein” (The University of Western Australia, priority 2005, published 2009):
# B1: SKIP: coregulator, coactivator of ER transactivation, transfected expression vector (protein, UniProt Q13573 2-536, looked up)
# SNW domain-containing protein …: ALTSFLPAPTQLSQDQLEAEEKARSQRSRQTSLVSSRREPPPYGYRKGWIPRLLEDFGDGGAFPEIHVAQYPLDMGRKKKMSNALAIQVDSEGKIKYDAIARQGQSKDKVIYSKYTDLVPKEVMNADDPDLQRPDEEAIKEITEKTRVALEKSVSQKVAAAMPVRAADKLAPAQYIRYTPSQQGVAFNSGAKQRVIRMVEMQKDPMEPPRFKINKKIPRGPPSPPAPVMHSPSRKMTVKEQQEWKIPPCISNWKNAKGYTIPLDKRLAADGRGLQTVHINENFAKLAEALYIADRKAREAVEMRAQVERKMAQKEKEKHEEKLREMAQKARERRAGIKTHVEKEDGEARERDEIRHDRRKERQHDRNLSRAAPDKRSKLQRNENRDISEVIALGVPNPRTSNEVQYDQRLFNQSKGMDSGFAGGEDEIYNVYDQAWRGGKDMAQSIYRPSKNLDKDMYGDDLEARIKTNRFVPDKEFSGSDRRQRGREGPVQFEEDPFGLDKFLEEAKQHGGSKRPSDSSRPKEHEHEGKKRRKE
# B2: GST-SHARP-RRM: GST-SHARP fusion protein containing the three RRM domains (SHARP aas 1-608) (protein, UniProt Q96T58 1-608, looked up, fragment)
# chain: MVRETRHLWVGNLPENVREEKIIEHFKRYGRVESVKILPKRGSEGGVAAFVDFVDIKSAQKAHNSVNKMGDRDLRTDYNEPGTIPSAARGLDDTVSIASRSREVSGFRGGGGGPAYGPPPSLHAREGRYERRLDGASDNRERAYEHSAYGHHERGTGGFDRTRHYDQDYYRDPRERTLQHGLYYASRSRSPNRFDAHDPRYEPRAREQFTLPSVVHRDIYRDDITREVRGRRPERNYQHSRSRSPHSSQSRNQSPQRLASQASRPTRSPSGSGSRSRSSSSDSISSSSSTSSDSSDSSSSSSDDSPARSVQSAAVPAPTSQLLSSLEKDEPRKSFGIKVQNLPVRSTDTSLKDGLFHEFKKFGKVTSVQIHGTSEERYGLVFFRQQEDQEKALTASKGKLFFGMQIEVTAWIGPETESENEFRPLDERIDEFHPKATRTLFIGNLEKTTTYHDLRNIFQRFGEIVDIDIKKVNGVPQYAFLQYCDIASVCKAIKKMDGEYLGNNRLKLGFGKSMPTNCVWLDGLSSNVSDQYLTRHFCRYGPVVKVVFDRLKGMALVLYNEIEYAQAAVKETKGRKIGGNKIKVDFANRESQLAFYHCMEKSGQDIRD
# modifications: GST fusion
# Legend:
# estrogen receptor (ER) = test: ERE-Luc (E2-responsive) reporter transfection assay in HeLa cells; format: cell-based, human
# Description: HeLa cells were transfected using FuGENE6 (Roche) with equal molar ratios of control and plasmid DNA: 50 ng/well ER(α); 0.6 μg/well ERE-Luc, GRE-Luc, TRE-Luc, ARE-Luc, VDRE-Luc; 0.0625 μg/well pSCT or 0.08 μg/well pSCT-SRA/pSCT-SRA-SDM7a; 0.049 μg/well pCMV-FLAG-7.1 or […] FLAG-SLIRP/FLAG-SLIRP-R24/FLAG-SLIRP-L62/FLAG-SLIRP-DM; 0.3 μg/well pCMX or 0.5 μg/well pCMX-SHARP; 100 ng/well pCGN or 100 ng/well pCGN-SKIP. After transfection, cells were cultured in complete medium for 24 h, prior to the addition of E2 (10 nM), Dex (10 nM), T3 (1 nM), DHT (10 nM), VitD (100 nM), 4-hydroxytamoxifen (Tam, 1 nM), ICI182780 (ICI, 1 nM) or equal volume of vehicle (absolute ethanol or water). After 8 h, lysates were assayed for luciferase activity relative to protein levels using Luciferase (Promega) and Protein Assay (BioRad) on a FluorStar Optima (BMG).
# SRA STR7 = test: REMSA with 32P-labeled SRA STR7 probe and recombinant proteins; format: binding, human; conditions: in the presence of heparin and RNase T1
# Text: The yeast three-hybrid SLIRP cDNA clone containing the coding region and 3′ UTR, was amplified with specific primers SLIRP (sense) 5′ cgc gga tcc gcg gcc tca gca gca 3′, SLIRP (reverse) 5′ gcg cgg atc cta ggc tgc agt ctca 3′, and subcloned into BamHI cut pCMV-FLAG 7.1 for transfection assays and pGEX-6P2 for GST-fusion protein experiments. STR7 primers (sense) 5′ agg agg cag gta tgt gat gac atc agc cga cgc ctg gca ctg ctg cag gaa cag tgg gct gga gga aag ttg tca ata cct gta aag aa 3′ and (reverse) 5′ ttc ttt aca ggt aft gac aac ttt cct cca gcc cac tgt tcc tgc agc agt gcc agg cgt cgg ctg atg tca tca cat acc tgc ttc ct 3′ were annealed and cloned into EcoRV-digested pBluescript II KS+ to generate labeled riboprobes. To generate the SRA mutant SDM7, the underlined residues above were mutated to tcc, ctc and ctc as outlined previously (19). pBluescript vectors were linearized with EcoRV for transcription with T7 or T3 RNA polymerase (Invitrogen) in reactions containing [^32P]UTP (Amersham Biosciences) or unlabeled UTP, as described (16), to produce riboprobes with a specific activity of ˜2×10^9 cpm/μg RNA. Constructs for expressing mutant forms of SLIRP (R24, 25A and L62A) were prepared by PCR-based mutagenesis. Each of the mutant coding domains was subcloned into BamH1-cut pCMV-FLAG 7.1 and pGEX-6P2 as above. […]
molecule,measurement,setting,value
"SHARP: SMRT/HDAC1 associated repressor protein, SRA corepressor, transfected expression vector [reference compound]",repression of SRA-mediated coactivation of E2-responsive reporter,estrogen receptor (ER); cotransfected with SRA,repressed SRA-mediated coactivation
B1,total increase in reporter activity,estrogen receptor (ER); SKIP with cotransfected SRA,~6 fold
same,increase of reporter activity,estrogen receptor (ER); transfected SKIP alone,~2 fold
B2,binding to SRA STR7 probe,SRA STR7,bound STR7 avidly
